Read-outs that look alike come from different tables or passages of the source.
Columns and labels:
[1] = biological target: GST-RanBP3 (human); experiment: pull-down
[2] = biological target: Crm1-His6 (human) (UniProt O14980); experiment: ELISA
[3] = biological target: Crm1-His6 (human) (UniProt O14980); experiment: ELISA; remark: listed apart in the source

## Crm1-His6 (from UniProt O14980 1-1071) (receptor)
[1]
  ratio bound/total at 1 min, with RanBP1: 0.52
  ratio bound/total at 1 min, without RanBP1: 0.59
  ratio bound/total at 10 min, with RanBP1: 0.39

## GST-RanBP3 (natural protein)
[2]
  Kd: 106 nM
[3]
  Kd: 64 nM

— publication PMC2150735
